Test results from patent publication US20230348616A1 (MIE UNIVERSITY, published 2023).

How the values were obtained:
2M [1] = target: T1, 2M; assay: flow cytometry, CD3e knockout T2 cells pulsed with 50 µM peptide, antibody at 100 nM, PE anti-human IgG; gMFI standardized to the HLA/peptide amount; DMSO-only cells 1.15
T1 construct: also called HLA-A2 / point-mutant NY-ESO peptide 2M complex on CD3e knockout T2 cells
Description: (§1) The cells were washed 2 times in PBS containing 5% FBS, PE conjugated F(ab′)2 Fragment Anti-Human IgG (Jackson Immuno Research Laboratories) diluted with PBS containing 5% FBS was added at 25 μl/well, and the resultant was allowed to stand at 4° C. for 30 minutes. The cells were washed 2 times in PBS containing 5% FBS, immobilized with Mildform 10 N (FUJIFILM Wako Pure Chemical Corporation) overnight, and resuspended in PBS containing 5% FBS. […] The cells were washed 2 times in PBS containing 5% FBS, immobilized with Mildform 10 N (FUJIFILM Wako Pure Chemical Corporation) overnight, and resuspended in PBS containing 5% FBS. The cell suspensions were subjected to detection using a flow cytometer (CantoII, Becton Dickinson). […] The standardized gMFI indicating the binding affinity of each Fc-conjugated anti-HLA-A2/NY-ESO-anti-CD3 bispecific molecule standardized with the amount of the HLA/peptide complex on the CD3e knockout T2 cells was determined in accordance with the following equation.

3A [2] = target: T2, 3A; assay: as above
T2 construct: also called HLA-A2 / point-mutant NY-ESO peptide 3A complex on CD3e knockout T2 cells
Description: as §1

4A [3] = target: T3, 4A; assay: as above
T3 construct: also called HLA-A2 / point-mutant NY-ESO peptide 4A complex on CD3e knockout T2 cells
Description: as §1

5A [4] = target: T4, 5A; assay: as above
T4 construct: also called HLA-A2 / point-mutant NY-ESO peptide 5A complex on CD3e knockout T2 cells
Description: as §1

6L [5] = target: T5, 6L; assay: as above
T5 construct: also called HLA-A2 / point-mutant NY-ESO peptide 6L complex on CD3e knockout T2 cells
Description: as §1

9A [6] = target: T6, 9A; assay: as above
T6 construct: peptide added to CD3e knockout T2 cells at 50 µM; also called HLA-A2 / point-mutant NY-ESO peptide 9A complex on CD3e knockout T2 cells
Description: as §1

1F = target: T7, 1F; assay: flow cytometry on peptide-pulsed T2 cells, scFv 100 nM
T7 construct: also called HLA-A2 / point-mutant NY-ESO peptide 1F complex on T2 cells

2M [7] = target: T8, 2M; assay: as above
T8 construct: also called HLA-A2 / point-mutant NY-ESO peptide 2M complex on T2 cells

3A [8] = target: T9, 3A; assay: as above
T9 construct: also called HLA-A2 / point-mutant NY-ESO peptide 3A complex on T2 cells

4A [9] = target: T10, 4A; assay: as above
T10 construct: also called HLA-A2 / point-mutant NY-ESO peptide 4A complex on T2 cells

5A [10] = target: T11, 5A; assay: as above
T11 construct: also called HLA-A2 / point-mutant NY-ESO peptide 5A complex on T2 cells

6L [11] = target: T12, 6L; assay: as above
T12 construct: also called HLA-A2 / point-mutant NY-ESO peptide 6L complex on T2 cells

7F = target: T13, 7F; assay: as above
T13 construct: also called HLA-A2 / point-mutant NY-ESO peptide 7F complex on T2 cells

8A = target: T14, 8A; assay: as above
T14 construct: also called HLA-A2 / point-mutant NY-ESO peptide 8A complex on T2 cells

9A [12] = target: T15, 9A; assay: as above
T15 construct: also called HLA-A2 / point-mutant NY-ESO peptide 9A complex on T2 cells

[13] = target: T16, HLA-A*0201/β2-microglobulin/NY-ESO peptide complex (human, biotinylated with E. coli biotin ligase at the added recognition sequence (biotinylated form used in the ELISA)); assay: screening of NYA-0001 mutant phage libraries
T16 construct: also called HLA/NY-ESO; HLA-A2/NY-ESO

| Binder | standardized gMFI (2M [1]) | standardized gMFI (3A [2]) | standardized gMFI (4A [3]) | standardized gMFI (5A [4]) | standardized gMFI (6L [5]) | standardized gMFI (9A [6]) | standardized gMFI (1F) | standardized gMFI (2M [7]) | standardized gMFI (3A [8]) | standardized gMFI (4A [9]) | standardized gMFI (5A [10]) | standardized gMFI (6L [11]) | standardized gMFI (7F) | standardized gMFI (8A) | standardized gMFI (9A [12]) | binding result [13] |
| --- | --- | --- | --- | --- | --- | --- | --- | --- | --- | --- | --- | --- | --- | --- | --- | --- |
| NYZ-1010 (bispecific antibody, human IgG1, lambda, L234A L235A) chain 1: not shown chain 2: not shown light: NFMLTQPSSVSGVPGQRVTISCTGNTGNIGSNYVNWYQQLPGTAPKLLIYRDDKRPSGVPDRFSGSKSGTSASLAITGFQAEDEADYYCQSYSSGFIFGGGTKLTVLGQPKAAPSVTLFPPSSEELQANKATLVCLISDFYPGAVTVAWKADSSPVKAGVETTTPSKQSNNKYAASSYLSLTPEQWKSHRSYSCQVTHEGSTVEKTVAPTECS | 39.5 | 21.3 | 1.05 | 1.02 | 37.6 | 51.9 |  |  |  |  |  |  |  |  |  |  |
| NYC-0003 (scFv, not shown: small tags and cut ends, also called 3M4E5 scFv; NYC-0003 tag adduct) scFv: EVQLLESGGGLVQPGGSLRLSCAASGFTFSTYQMSWVRQAPGKGLEWVSGIVSSGGSTAYADSVKGRFTISRDNSKNTLYLQMNSLRAEDTAVYYCAGELLPYYGMDVWGQGTTVTVSSGGGGSGGGGSGGGGSQSELTQPRSVSGSPGQSVTISCTGTSRDVGGYNYVSWYQQHPGKAPKLIIHDVIERSSGVPDRFSGSKSGNTASLTISGLQAEDEADYYCWSFAGSYYVFGTGTDVTVL |  |  |  |  |  |  | 3.28 | 3.73 | 4.34 | 0.76 | 0.69 | 4.14 | 3.99 | 3.42 | 4.77 |  |
| NYA-0001 (scFv, also called NYA-0001 tag adduct; NY-R119 expressed in a cultured mammalian cell) scFv: GEVQLVESGGGVVQPGRSLTPSCSASGFSIRSYDIHWVRQAPGKGLEWVATISYDGSQKYFADSVKGRFTIFRDESENMVYLQMSGLRVEDTAVYHCARGSSGHYEAFDIWGQGTMVTVSSGGGGSGGGGSGGGGSQSVLTQPPSVSAAPGQKVTISCSGSSSNIGNNYVSWYQQLPGTAPKLLIYDNNKRPSGIPDRFSGSKSGTSATLGITGLQTGDEADYYCGTWDSSLSAPWVFGGGTKVTVLGAAAGAGGDYKDDDDKGAAAHHHHHH |  |  |  |  |  |  | 0.6 | 7.72 | 7.88 | 0.83 | 0.78 | 7.97 | 0.97 | 6.67 | 6.56 |  |
| NYA-2027 (scFv) scFv: GEVQLVESGGGVVQPGRSLTPSCSASGFSIRSYDIHWVRQAPGKGLEWVATISYDGSQKYFADSVKGRFTIFRDESENMVYLQMSGLRVEDTAVYHCARGSSGHYEAFDIWGQGTMVTVSSGGGGSGGGGSGGGGSQSVLTQPPSVSAAPGQKVTISCSGSSSNIGNNYVSWYQQLPGTAPKLLIYDNNKRPSGIPDRFSGSKSGTSATLGITGLQTGDEADYYCGSWDSSLSAPWVFGGGTKVTVLGAAAGAGGDYKDDDDKGAAAHHHHHH |  |  |  |  |  |  | 0.57 | 7.84 | 9.91 | 0.99 | 0.75 | 7.85 | 5.41 | 9.47 | 6.9 |  |
| NYA-2060 (scFv, also called NYA-2060 tag adduct) scFv: GEVQLVESGGGLVQPGGSLRLSCAASGFSIRSYDIHWVRQAPGKGLEWVATISYDGSQKYYADSVKGRFTISRDESKNTLYLQMNSLRAEDTAVYHCARGSSGHYEAFDIWGQGTLVTVSSGGGGSGGGGSGGGGSQSVLTQPPSVSAAPGQKVTISCSGSSSNIGNWYVSWYQQLPGTAPKLLIYDNNKRPSGIPDRFSGSKSGTSATLGITGLQTGDEADYYCGTWDSSLSAPWVFGGGTKVTVLGAAAGAGGDYKDDDDKGAAAHHHHHH |  |  |  |  |  |  | 0.52 | 6.93 | 5.51 | 0.73 | 0.7 | 7.94 | 2.51 | 6.18 | 9.48 |  |
| NYA-2061 (scFv, also called NYA-2061 tag adduct) scFv: GEVQLVESGGGLVQPGGSLRLSCAASGFSIRSYDIHWVRQAPGKGLEWVATISYDGSQKYYADSVKGRFTISRDESKNTLYLQMNSLRAEDTAVYHCARGSSGHYEAFDIWGQGTLVTVSSGGGGSGGGGSGGGGSQSVLTQPPSASGTPGQRVTISCSGSSSNIGNWYVSWYQQLPGTAPKLLIYDNNKRPSGVPDRFSGSKSGTSASLAISGLQSEDEADYYCGTWDSSLSAPWVFGGGTKLTVLGAAAGAGGDYKDDDDKGAAAHHHHHH |  |  |  |  |  |  | 0.54 | 7.17 | 4.73 | 0.59 | 0.66 | 7.13 | 2.04 | 5.22 | 9.16 |  |
| NYA-0060 (scFv, V domains shown, NYA-0001 mutant from a phage library) VH: EVQLVESGGGVVQPGRSLTPSCSASGFSIRSYDIHWVRLAPGKGLEWVATISYDGSQKYFADSVKGRFTIFRDESENMVYLQMSGLRVEDTAVYHCARGSSGHYEAFDIWGQGTMVTVSS VL: QSVLTQPPSVSAAPGQKVTISCSGSSSNIGNNYVSWYQQLPGTAPKLLIYDNNKRPSGIPDRFSGSKSGTSATLGITGLQTGDEADYYCGTWDSSLSAPWVFGGGTKVTVL |  |  |  |  |  |  |  |  |  |  |  |  |  |  |  | binds |
| NYA-0082 (scFv, V domains shown, NYA-0001 mutant from a phage library) VH: EVQLVESGGGVVQPGRSLTPSCSASGFSIRSYDIHWVRQAPGKGLEWVATISYDGSQKYFADSVKGRFTIFRDESENMVYLQMSGLRVEDTAVYHCARGSSGHYEAFDIWGQGTMVTVSS VL: QSVLTQPPSVSAAPGQKVTISCSGSSSNIGNNYVSWYQRLPGTAPKLLIYDNNKRPSGIPDRFSGSKSGTSATLGITGLQTGDEADYYCGSWDSSLSAPWVFGGGTKVTVL |  |  |  |  |  |  |  |  |  |  |  |  |  |  |  | binds |
| NYA-0068 (scFv, V domains shown, NYA-0001 mutant from a phage library) VH: EVQLVESGGGVVQPGRSLTPSCSASGFSIRSYDIHWVRQAPGKGLEWVATISYDGSQKYFADSVKGRFTIFRDESENMVYLQMSGLRVEDTAVYHCARGSSGHYEAFDIWGQGTMVTVSS VL: QSVLTQPPSVSAAPGQKVTISCSGSSSNIGNWYVSWYQQLPGTAPKLLIYDNNKRPSGIPDRFSGSKSGTSATLGITGLQTGDEADYYCGTWDSSLSAPWVFGGGTKVTVL |  |  |  |  |  |  |  |  |  |  |  |  |  |  |  | binds |
